Measurements published in publication PMC7994586, “The box C/D snoRNP assembly factor Bcd1 interacts with the histone chaperone Rtt106 and controls its transcription dependent activity” (Nature Communications, 2021).
Where no end group is shown, it is not given here.

B4: recombinant fragment Rtt106p-M (Rtt106p_(65-320)), purified (domain or fragment, S. cerevisiae, UniProt P40161 65-320, looked up)
chain: DEISETNTIFKLEGVSVLSPLRKKLDLVFYLSNVDGSPVITLLKGNDRELSIYQLNKNIKMASFLPVPEKPNLIYLFMTYTSCEDNKFSEPVVMTLNKENTLNQFKNLGLLDSNVTDFEKCVEYIRKQAILTGFKISNPFVNSTLVDTDAEKINSFHLQCHRGTKEGTLYFLPDHIIFGFKKPILLFDASDIESITYSSITRLTFNASLVTKDGEKYEFSMIDQTEYAKIDDYVKRKQMKDKSMSEELKAKSKSKG
notes: Rtt106p, yeast, residues 65-320 (tandem PH1 and PH2 domains); Native MS mass 29,695 Da; also called 65-320 (M) domain of Rtt106p
B5: recombinant Bcd1pFL, purified (natural protein, S. cerevisiae, UniProt P38772 1-366, looked up)
chain: MAVLCGVCGIKEFKYKCPRCLVQTCSLECSKKHKTRDNCSGQTHDPKEYISSEALKQADDDKHERNAYVQRDYNYLTQLKRMVHVQKMDARMKNKRVLGPVGGHNSNFKKRRYDIDEDDRDSTECQRIIRRGVNCLMLPKGMQRSSQNRSKWDKTMDLFVWSVEWILCPMQEKGEKKELFKHVSHRIKETDFLVQGMGKNVFQKCCEFYRLAGTSSCIEGEDGSETKEERTQILQKSGLKFYTKTFPYNTTHIMDSKKLVELAIHEKCIGELLKNTTVIEFPTIFVAMTEADLPEGYEVLHQEPRPLEHTSTLNKFIDNAREEEDAEEDSQPTEEPVQKETQDASDSDSDSDDDYNPGLSMDFLTA
notes: Bcd1p, S. cerevisiae, full length; Detected by native MS with two zinc ions (42,752 Da); also called Bcd1FL; full-length Bcd1p

Tests used:
[1] = target: T1, Rtt106p_(65-301) bound to Bcd1p_(120-303) (S. cerevisiae, UniProt P40161 65-301; P38772 120-303); assay: ITC
T1 chain 1: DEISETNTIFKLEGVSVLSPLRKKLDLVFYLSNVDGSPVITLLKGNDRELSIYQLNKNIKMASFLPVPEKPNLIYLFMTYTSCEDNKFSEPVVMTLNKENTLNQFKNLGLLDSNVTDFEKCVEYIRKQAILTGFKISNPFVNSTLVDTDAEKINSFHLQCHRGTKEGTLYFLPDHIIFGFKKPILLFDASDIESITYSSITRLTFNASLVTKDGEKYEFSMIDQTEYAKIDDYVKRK
T1 chain 2: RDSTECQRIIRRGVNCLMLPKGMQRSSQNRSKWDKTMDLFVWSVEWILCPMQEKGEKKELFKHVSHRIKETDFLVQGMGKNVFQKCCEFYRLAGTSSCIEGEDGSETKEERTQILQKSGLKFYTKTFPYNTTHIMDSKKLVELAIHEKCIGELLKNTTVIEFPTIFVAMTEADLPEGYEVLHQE

[2] = target: T2, Rtt106p_(65-301) (S. cerevisiae, UniProt P40161 65-301); assay: ITC
T2 chain: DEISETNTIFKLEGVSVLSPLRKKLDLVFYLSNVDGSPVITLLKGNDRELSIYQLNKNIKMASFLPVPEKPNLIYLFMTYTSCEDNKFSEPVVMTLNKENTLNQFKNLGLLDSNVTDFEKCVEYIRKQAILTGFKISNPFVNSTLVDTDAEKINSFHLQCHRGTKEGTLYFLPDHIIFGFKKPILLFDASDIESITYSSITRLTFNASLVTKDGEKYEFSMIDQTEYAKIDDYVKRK

[3] = target: T3, Rtt106p_(65-301) (S. cerevisiae, UniProt P40161 65-301); assay: ITC; H3K56ac peptide (2 mM) as the titrant into 200 μM Rtt106p_(65-301) with or without Bcd1p_(120-303); settings: both partners purified
T3 construct: Rtt106p, yeast, residues 65-301 (tandem PH domains); also called Rtt106_(65-301); source: E. coli BL21 pRARE2, purified
T3 sequence (looked up): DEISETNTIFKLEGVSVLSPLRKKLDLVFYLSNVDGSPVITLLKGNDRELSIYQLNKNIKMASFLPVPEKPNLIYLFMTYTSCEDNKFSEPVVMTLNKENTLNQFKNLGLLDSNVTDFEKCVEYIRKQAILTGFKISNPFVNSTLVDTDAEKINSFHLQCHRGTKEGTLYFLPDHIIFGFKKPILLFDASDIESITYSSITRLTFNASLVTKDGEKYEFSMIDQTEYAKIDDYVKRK

[4] = target: T4, Rtt106p_(65-301) bound to Bcd1p_(120-303) (S. cerevisiae, UniProt P40161 65-301; P38772 120-303); assay: as above; settings: both partners purified
T4 construct: Rtt106p, yeast, residues 65-301; as the chain of m19; as the chain of m18; Formed before titration with the H3K56ac peptide; source: E. coli BL21 pRARE2, purified proteins, mixed; not shown: His6, N-terminal, cleaved; copies: 1 + 1
T4 sequence (looked up) 1: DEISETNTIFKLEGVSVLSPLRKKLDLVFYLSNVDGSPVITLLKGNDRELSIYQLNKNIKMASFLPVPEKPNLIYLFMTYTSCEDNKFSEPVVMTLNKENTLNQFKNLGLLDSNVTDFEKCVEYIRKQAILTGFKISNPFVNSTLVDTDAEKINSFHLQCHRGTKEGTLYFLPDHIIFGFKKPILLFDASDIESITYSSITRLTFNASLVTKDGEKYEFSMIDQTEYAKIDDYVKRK
T4 sequence (looked up) 2: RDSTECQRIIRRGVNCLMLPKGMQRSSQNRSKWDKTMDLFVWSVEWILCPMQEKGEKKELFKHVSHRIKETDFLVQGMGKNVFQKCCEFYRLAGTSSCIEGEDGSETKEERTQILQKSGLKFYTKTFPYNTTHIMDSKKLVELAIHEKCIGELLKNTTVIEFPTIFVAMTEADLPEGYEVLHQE

[5] = target: T5, recombinant fragment Rtt106p-M (Rtt106p_(65-320)), purified (S. cerevisiae, UniProt P40161 65-320); assay: ITC
T5 chain: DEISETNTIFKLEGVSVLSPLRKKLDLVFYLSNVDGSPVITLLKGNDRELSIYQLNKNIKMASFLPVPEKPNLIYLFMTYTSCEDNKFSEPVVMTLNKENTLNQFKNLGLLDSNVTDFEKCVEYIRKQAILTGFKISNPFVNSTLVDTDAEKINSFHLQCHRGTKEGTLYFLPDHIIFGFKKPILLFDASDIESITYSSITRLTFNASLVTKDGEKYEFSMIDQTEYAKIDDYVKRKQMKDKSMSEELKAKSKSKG

[6] = target: T3, Rtt106p_(65-301); assay: ITC; 293 K, 10 mM NaPi pH 7.5, 150 mM NaCl, 0.5 mM TCEP; 40 μM titrated, 400 μM titrant; settings: both partners purified
[7] = target: B5; assay: as above; settings: both partners purified
[8] = target: B4; assay: native MS; individual partners and co-purified complex in 150 mM ammonium acetate pH 7.5, nanoESI, nondenaturing conditions; settings: both partners purified

B1: H3K56ac (IRRFQKacSTELL) peptide (peptide)
peptide: IRRFQK(Ac)STELL
notes: histone H3 stretch around lysine 56, acetylated at K56; also called acetylated peptide; source: synthetic peptide, bought: Proteogenix
Q: With B1 as the binder, how does the Kd [1] read?
A: 649000 nM

Q: What about the Kd [2] of the same binder?
A: 714000 nM

Q: Does B1 bind [3]?
A: binds

Q: Does B1 bind [4]?
A: binds

B2: Bcd1p120-366 (protein)
chain: RDSTECQRIIRRGVNCLMLPKGMQRSSQNRSKWDKTMDLFVWSVEWILCPMQEKGEKKELFKHVSHRIKETDFLVQGMGKNVFQKCCEFYRLAGTSSCIEGEDGSETKEERTQILQKSGLKFYTKTFPYNTTHIMDSKKLVELAIHEKCIGELLKNTTVIEFPTIFVAMTEADLPEGYEVLHQEPRPLEHTSTLNKFIDNAREEEDAEEDSQPTEEPVQKETQDASDSDSDSDDDYNPGLSMDFLTA
Q: For B2, which Kd [5] is on record?
A: 1740 nM

B3: Bcd1p_(120-303) (domain or fragment, S. cerevisiae, UniProt P38772 120-303, looked up)
chain: RDSTECQRIIRRGVNCLMLPKGMQRSSQNRSKWDKTMDLFVWSVEWILCPMQEKGEKKELFKHVSHRIKETDFLVQGMGKNVFQKCCEFYRLAGTSSCIEGEDGSETKEERTQILQKSGLKFYTKTFPYNTTHIMDSKKLVELAIHEKCIGELLKNTTVIEFPTIFVAMTEADLPEGYEVLHQE
notes: Tag removal is told for the NMR preparation; the preparation for ITC is not described separately; source: E. coli BL21 pRARE2, purified (TALON, PreScission cleavage, gel filtration); not shown: His6, N-terminal, cleaved
Q: Which results are given for B3?
A: Kd [5]: 1160 nM; Kd [2]: 1630 nM; Kd [6]: 940 ± 60 nM

Q: Which Kd [7] does the source give for B4 here?
A: 1170 ± 170 nM

Q: How did the “stoichiometry N” value [8] turn out when B5 was run?
A: 1
